Measured values from article PMC11250742, “Preclinical evaluation of CXCR4 peptides for targeted radionuclide therapy in glioblastoma” (EJNMMI Radiopharmacy and Chemistry, 2024).
Read-outs that look alike come from different tables or passages of the source. Where a SMILES comes first, the peptide text is derived from it. Bridges are numbered along the chain shown (N, C = ends). [ ]: non-standard residue; d: D form. The star is where a group is joined. DOTA = O=C(O)CN1CCN(CC(=O)O)CCN(CC(=O)*)CCN(CC(=O)O)CC1; 2Nal = N[C@@H](Cc1ccc2ccccc2c1)C(=O)O; Cit = NC(=O)NCCC[C@H](N)C(=O)O

Experiment: Ex vivo biodistribution in U87-CXCR4 + tumour-bearing mice
Parameters: species or system BALB/c nude mice
Conditions: mouse; for tissue to tissue ratio at 24 h / tissue uptake dose at 1 h / tissue uptake dose at 4 h / tissue uptake dose at 24 h / tissue uptake dose at 168 h / SUV at 1 h / SUV at 4 h / SUV at 24 h / SUV at 168 h: female, BALB/c nude, iv, 1.5 MBq, total radioactivity; for tissue uptake dose at 1 h / tissue uptake dose at 4 h / tissue uptake dose at 24 h / tissue uptake dose at 168 h: %IA
Method: For the generation of the subcutaneous GBM xenograft model, BALB/c nude mice (between 8 and 12 weeks old) were anesthetised with 2.5% isoflurane in O2 at a flow rate of 0.2 L/min and subcutaneously injected on the right shoulder with 3 × 10^6 U87-CXCR4 + cells resuspended in a 1:1 mixture of PBS and Cultrex BME (R&D Systems, Bio-Techne, Minnesota, US). Tumours were left to grow for ten days before the start of the experiment. Tumour volumes were calculated as length × width × height. Three days before the experiment, the mean tumour volumes of all mice were 255 ± 119 mm^3.
The pharmacokinetic profile of [^177Lu]Lu-POL3026 was evaluated in female BALB/c nude mice with subcutaneous xenografts of U87-CXCR4 + tumours.
All animals were anesthetised with 2.5% isoflurane in O2 at a flow rate of 1 L/min and intravenously (IV) injected with 1.5 MBq of [^177Lu]Lu-POL3026 via a tail vein (radiolabelled with a Am of 53.1 ± 0.55 MBq/nmol). The mice were sacrificed by an overdose of pentobarbital (200 µL of 60 mg/mL) at 1-, 4-, 24- and 168 h post-injection (p.i.) (n = 3–4 per time point), followed by cardiac puncture. Organs of interest were collected in tarred tubes and weighed. The activity in the different organs was measured in the automated gamma counter described above. For the calculation of the total activity in the blood, bone, and muscle, the masses were assumed to be 7, 12 and 40% of the total body mass, respectively. Data is shown as standardised uptake value (SUV), calculated using the following equation:
SUV = [Activity in organ (cpm) / Organ weight (g)] / [(Injected activity (cpm) / Total body weight (g)].

`N=C(N)NCCC[C@@H]1NC(=O)[C@@H]2CSSC[C@H](NC(=O)[C@H](Cc3ccc4ccccc4c3)NC(=O)[C@H](CCCNC(=N)N)NC(=O)[C@H](CCCNC(=N)N)NC(=O)[C@H]3CCCN3C(=O)CNC1=O)C(=O)N[C@@H](Cc1ccc(O)cc1)C(=O)N[C@@H](CCC(N)=O)C(=O)N[C@@H](CCCCNC(=O)CN1CCN(CC(=O)O)CCN(CC(=O)O)CCN(CC(=O)O)CC1)C(=O)N1CCC[C@@H]1C(=O)N1CCC[C@H]1C(=O)N[C@@H](Cc1ccc(O)cc1)C(=O)N[C@@H](CCCNC(=N)N)C(=O)N[C@@H](CCCNC(N)=O)C(=O)N2` [[^177Lu]Lu-DOTA-POL3026, metal not drawn] (cyclo(RR[2Nal]CYQK(DOTA)[dP]PYR[Cit]CRG[dP]); disulfide 4-13) gave a tissue to tissue ratio at 24 h (24 h p.i., read-out: tumour-to-kidney ratio) of 0.7, a tissue uptake dose at 1 h (Blood) of 15.2 %ID and a tissue uptake dose at 4 h (Blood) of 3.73 %ID. It also gave a tissue uptake dose at 24 h (Blood) of 0.14 %ID, a tissue uptake dose at 168 h (Blood) of 0.04 %ID and a tissue uptake dose at 1 h (Blood on tissue paper) of 3.79 %ID. For the same compound, the tissue uptake dose at 4 h (Blood on tissue paper) was 1.56 %ID, the tissue uptake dose at 24 h (Blood on tissue paper) was 0.51 %ID and the tissue uptake dose at 168 h (Blood on tissue paper) was 0.2 %ID. The tissue uptake dose at 1 h (Bone) was 8.81 %ID, the tissue uptake dose at 4 h (Bone) was 14.4 %ID and the tissue uptake dose at 24 h (Bone) was 7.05 %ID. It also gave a tissue uptake dose at 168 h (Bone) of 2.14 %ID, a tissue uptake dose at 1 h (Brain) of 0.09 %ID and a tissue uptake dose at 4 h (Brain) of 0.03 %ID. The tissue uptake dose at 24 h (Brain) was 0.01 %ID, the tissue uptake dose at 1 h (Carcass) was 28.5 %ID and the tissue uptake dose at 4 h (Carcass) was 18.3 %ID. For the same compound, the tissue uptake dose at 24 h (Carcass) was 12.8 %ID, the tissue uptake dose at 168 h (Carcass) was 3.02 %ID and the tissue uptake dose at 1 h (Heart) was 0.71 %ID. The tissue uptake dose at 4 h (Heart) was 0.22 %ID, the tissue uptake dose at 24 h (Heart) was 0.09 %ID and the tissue uptake dose at 168 h (Heart) was 0.01 %ID. For the same compound, the tissue uptake dose at 1 h (Intestines) was 5.63 %ID, the tissue uptake dose at 4 h (Intestines) was 3.76 %ID and the tissue uptake dose at 24 h (Intestines) was 2.14 %ID. For the same compound, the tissue uptake dose at 168 h (Intestines) was 0.59 %ID, the tissue uptake dose at 1 h (Kidneys) was 4.03 %ID and the tissue uptake dose at 4 h (Kidneys) was 4.99 %ID. For the same compound, the tissue uptake dose at 24 h (Kidneys) was 3.65 %ID, the tissue uptake dose at 168 h (Kidneys) was 0.61 %ID and the tissue uptake dose at 1 h (Liver) was 31.6 %ID. It also gave a tissue uptake dose at 4 h (Liver) of 39.8 %ID, a tissue uptake dose at 24 h (Liver) of 39.2 %ID and a tissue uptake dose at 168 h (Liver) of 14.2 %ID. For the same compound, the tissue uptake dose at 1 h (Lungs) was 2.72 %ID, the tissue uptake dose at 4 h (Lungs) was 1.87 %ID and the tissue uptake dose at 24 h (Lungs) was 0.59 %ID. For the same compound, the tissue uptake dose at 168 h (Lungs) was 0.06 %ID, the tissue uptake dose at 1 h (Muscle) was 9.87 %ID and the tissue uptake dose at 4 h (Muscle) was 4.89 %ID. It also gave a tissue uptake dose at 24 h (Muscle) of 3.78 %ID, a tissue uptake dose at 168 h (Muscle) of 0.57 %ID and a tissue uptake dose at 1 h (Pancreas) of 0.3 %ID. The tissue uptake dose at 4 h (Pancreas) was 0.16 %ID, the tissue uptake dose at 24 h (Pancreas) was 0.1 %ID and the tissue uptake dose at 168 h (Pancreas) was 0.02 %ID. For the same compound, the tissue uptake dose at 1 h (Spleen) was 4.01 %ID, the tissue uptake dose at 4 h (Spleen) was 2.02 %ID and the tissue uptake dose at 24 h (Spleen) was 1.61 %ID. For the same compound, the tissue uptake dose at 168 h (Spleen) was 0.72 %ID, the tissue uptake dose at 1 h (Stomach) was 0.35 %ID and the tissue uptake dose at 4 h (Stomach) was 0.31 %ID. It also gave a tissue uptake dose at 24 h (Stomach) of 0.17 %ID, a tissue uptake dose at 168 h (Stomach) of 0.03 %ID and a tissue uptake dose at 1 h (Tail) of 2.05 %ID. It also gave a tissue uptake dose at 4 h (Tail) of 1.75 %ID, a tissue uptake dose at 24 h (Tail) of 1.7 %ID and a tissue uptake dose at 168 h (Tail) of 0.53 %ID. The tissue uptake dose at 1 h (Tumour) was 1.54 %ID, the tissue uptake dose at 4 h (Tumour) was 1.01 %ID and the tissue uptake dose at 24 h (Tumour) was 1.46 %ID. The tissue uptake dose at 168 h (Tumour) was 0.29 %ID, the SUV at 1 h (Blood) was 2.17 SUV and the SUV at 4 h (Blood) was 0.53 SUV. For the same compound, the SUV at 24 h (Blood) was 0.02 SUV, the SUV at 1 h (Bone) was 0.73 SUV and the SUV at 4 h (Bone) was 1.2 SUV. It also gave an SUV at 24 h (Bone) of 0.59 SUV, an SUV at 168 h (Bone) of 0.18 SUV and an SUV at 1 h (Brain) of 0.05 SUV. It also gave an SUV at 4 h (Brain) of 0.02 SUV, an SUV at 24 h (Brain) of 0.01 SUV and an SUV at 1 h (Heart) of 1.33 SUV. It also gave an SUV at 4 h (Heart) of 0.46 SUV, an SUV at 24 h (Heart) of 0.17 SUV and an SUV at 168 h (Heart) of 0.02 SUV. It also gave an SUV at 1 h (Kidneys) of 2.57 SUV, an SUV at 4 h (Kidneys) of 3.34 SUV and an SUV at 24 h (Kidneys) of 2.41 SUV. The SUV at 168 h (Kidneys) was 0.38 SUV, the SUV at 1 h (Liver) was 5.27 SUV and the SUV at 4 h (Liver) was 7.32 SUV. It also gave an SUV at 24 h (Liver) of 6.46 SUV, an SUV at 168 h (Liver) of 2.3 SUV and an SUV at 1 h (Lungs) of 4.74 SUV. It also gave an SUV at 4 h (Lungs) of 3.24 SUV, an SUV at 24 h (Lungs) of 1.02 SUV and an SUV at 168 h (Lungs) of 0.08 SUV. The SUV at 1 h (Muscle) was 0.25 SUV, the SUV at 4 h (Muscle) was 0.12 SUV and the SUV at 24 h (Muscle) was 0.09 SUV. It also gave an SUV at 168 h (Muscle) of 0.01 SUV, an SUV at 1 h (Pancreas) of 0.3 SUV and an SUV at 4 h (Pancreas) of 0.19 SUV. For the same compound, the SUV at 24 h (Pancreas) was 0.13 SUV, the SUV at 168 h (Pancreas) was 0.02 SUV and the SUV at 1 h (Spleen) was 8.67 SUV. For the same compound, the SUV at 4 h (Spleen) was 6.77 SUV, the SUV at 24 h (Spleen) was 4.83 SUV and the SUV at 168 h (Spleen) was 1.84 SUV. It also gave an SUV at 1 h (Tumour) of 1.39 SUV, an SUV at 4 h (Tumour) of 1.74 SUV and an SUV at 24 h (Tumour) of 1.79 SUV. The SUV at 168 h (Tumour) was 0.32 SUV, the tissue to tissue ratio at 24 h (tumour-to-blood ratio) was 89 and the tissue to tissue ratio at 24 h (tumour-to-liver ratio) was 0.3. The tissue to tissue ratio at 24 h (tumour-to-muscle ratio) was 19, the “%IA, Brain” value was 0.00 %IA and the “SUV, Blood” value was 0.00. The “SUV, Brain” value was 0.00 and the “SUV, Tumour” value was 1.9.
